One block for each binder: values may come before it. Where no end group is shown, it is not given here. [ ]: non-standard residue; d: D form. dOrn = NCCC[C@@H](N)C(=O)O
Legend:
Experiment in all cases: cell-based or functional assay
[1] = target: T1, human Interleukin-1 receptor (IL-1R-alpha) (human, UniProt P14778 18-569)
T1 sequence: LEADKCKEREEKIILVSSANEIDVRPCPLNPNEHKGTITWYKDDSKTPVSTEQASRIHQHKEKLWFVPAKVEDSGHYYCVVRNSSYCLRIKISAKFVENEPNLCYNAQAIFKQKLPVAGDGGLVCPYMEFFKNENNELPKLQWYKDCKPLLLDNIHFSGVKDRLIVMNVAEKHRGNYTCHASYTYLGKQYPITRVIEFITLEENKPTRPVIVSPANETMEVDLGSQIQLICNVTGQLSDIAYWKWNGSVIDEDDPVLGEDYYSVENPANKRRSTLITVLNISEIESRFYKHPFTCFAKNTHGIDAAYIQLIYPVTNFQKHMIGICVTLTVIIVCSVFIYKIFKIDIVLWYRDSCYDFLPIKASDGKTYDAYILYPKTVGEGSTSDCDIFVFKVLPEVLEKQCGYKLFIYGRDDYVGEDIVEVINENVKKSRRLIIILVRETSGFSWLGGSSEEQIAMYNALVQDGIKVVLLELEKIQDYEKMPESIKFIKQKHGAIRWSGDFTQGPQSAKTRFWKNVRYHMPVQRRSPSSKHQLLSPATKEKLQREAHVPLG

[2] = target: T2, human Insulin-like growth factor 1 receptor (IGF-1R) (human, UniProt P08069 31-1367)
T2 sequence (P08069 31-1367 limits assumed): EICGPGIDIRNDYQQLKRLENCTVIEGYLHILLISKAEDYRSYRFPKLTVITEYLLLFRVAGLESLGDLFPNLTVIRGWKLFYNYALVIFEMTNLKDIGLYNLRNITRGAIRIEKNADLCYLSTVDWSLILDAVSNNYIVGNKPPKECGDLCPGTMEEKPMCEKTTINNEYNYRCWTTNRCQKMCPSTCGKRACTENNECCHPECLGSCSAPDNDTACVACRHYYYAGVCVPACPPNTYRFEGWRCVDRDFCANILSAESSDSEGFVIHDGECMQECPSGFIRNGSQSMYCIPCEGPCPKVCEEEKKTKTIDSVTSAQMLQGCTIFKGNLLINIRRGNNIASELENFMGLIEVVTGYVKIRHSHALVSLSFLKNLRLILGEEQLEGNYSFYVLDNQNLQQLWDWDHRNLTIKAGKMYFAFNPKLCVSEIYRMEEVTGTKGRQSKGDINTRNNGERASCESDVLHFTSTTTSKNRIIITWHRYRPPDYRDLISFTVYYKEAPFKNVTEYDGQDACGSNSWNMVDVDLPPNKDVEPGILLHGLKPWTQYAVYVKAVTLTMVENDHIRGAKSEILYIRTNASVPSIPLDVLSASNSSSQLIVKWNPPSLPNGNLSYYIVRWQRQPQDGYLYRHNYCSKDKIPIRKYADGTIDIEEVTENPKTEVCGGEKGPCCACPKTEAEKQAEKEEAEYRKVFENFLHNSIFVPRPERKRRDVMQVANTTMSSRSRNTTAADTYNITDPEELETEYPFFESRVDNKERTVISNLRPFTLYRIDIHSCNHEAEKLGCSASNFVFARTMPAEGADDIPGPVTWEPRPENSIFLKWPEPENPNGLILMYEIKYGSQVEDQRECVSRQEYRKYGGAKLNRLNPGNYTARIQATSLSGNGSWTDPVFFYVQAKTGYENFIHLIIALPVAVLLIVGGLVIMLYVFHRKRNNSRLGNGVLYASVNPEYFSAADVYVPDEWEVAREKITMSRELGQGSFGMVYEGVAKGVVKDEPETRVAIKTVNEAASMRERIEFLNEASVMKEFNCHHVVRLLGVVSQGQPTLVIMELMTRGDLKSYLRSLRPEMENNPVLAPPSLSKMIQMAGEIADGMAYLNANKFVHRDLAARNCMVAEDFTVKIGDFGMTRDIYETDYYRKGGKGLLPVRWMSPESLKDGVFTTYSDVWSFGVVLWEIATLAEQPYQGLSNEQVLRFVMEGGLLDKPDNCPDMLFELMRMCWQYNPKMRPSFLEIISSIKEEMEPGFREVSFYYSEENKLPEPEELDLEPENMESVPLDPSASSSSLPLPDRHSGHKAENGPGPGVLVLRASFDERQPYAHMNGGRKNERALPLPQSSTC

[3] = target: T2, human Insulin-like growth factor 1 …; remark: listed apart in the source
[4] = target: IL-1R (cells or tissue whose species or assay the filing does not state at that place)
[5] = target: T1, human Interleukin-1 receptor …; remark: listed apart in the source
[6] = target: T2, human Insulin-like growth factor 1 …; remark: listed apart in the source
[7] = target: T2, human Insulin-like growth factor 1 …; remark: listed apart in the source
[8] = target: T3, IL-1R of pig (piglet pial vessels; porcine endothelial cells) (porcine (piglet), UniProt A0A5G2QSI4 18-572)
T3 sequence: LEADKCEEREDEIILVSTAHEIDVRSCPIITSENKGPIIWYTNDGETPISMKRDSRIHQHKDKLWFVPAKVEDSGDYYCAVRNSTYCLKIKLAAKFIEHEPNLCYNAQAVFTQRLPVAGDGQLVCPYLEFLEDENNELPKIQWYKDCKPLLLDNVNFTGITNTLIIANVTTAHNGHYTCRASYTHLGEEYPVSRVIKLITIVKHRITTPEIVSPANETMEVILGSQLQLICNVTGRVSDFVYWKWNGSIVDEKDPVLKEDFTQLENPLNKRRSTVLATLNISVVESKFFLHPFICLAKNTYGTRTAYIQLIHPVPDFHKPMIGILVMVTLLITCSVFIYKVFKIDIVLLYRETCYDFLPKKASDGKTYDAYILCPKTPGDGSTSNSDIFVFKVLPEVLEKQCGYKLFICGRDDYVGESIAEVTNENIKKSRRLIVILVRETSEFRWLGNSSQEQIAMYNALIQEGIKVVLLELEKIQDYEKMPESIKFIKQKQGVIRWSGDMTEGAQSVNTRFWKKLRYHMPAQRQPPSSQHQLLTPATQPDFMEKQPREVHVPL

[9] = target: T1, human Interleukin-1 receptor …; remark: listed apart in the source
[10] = target: T3, IL-1R of pig (piglet pial vessels; …); remark: listed apart in the source
VEGFR-2 (Flk-1) = VEGFR-2 (Flk-1) (human, UniProt P35968 20-1356)
Chain of VEGFR-2 (Flk-1) (P35968 20-1356 limits assumed): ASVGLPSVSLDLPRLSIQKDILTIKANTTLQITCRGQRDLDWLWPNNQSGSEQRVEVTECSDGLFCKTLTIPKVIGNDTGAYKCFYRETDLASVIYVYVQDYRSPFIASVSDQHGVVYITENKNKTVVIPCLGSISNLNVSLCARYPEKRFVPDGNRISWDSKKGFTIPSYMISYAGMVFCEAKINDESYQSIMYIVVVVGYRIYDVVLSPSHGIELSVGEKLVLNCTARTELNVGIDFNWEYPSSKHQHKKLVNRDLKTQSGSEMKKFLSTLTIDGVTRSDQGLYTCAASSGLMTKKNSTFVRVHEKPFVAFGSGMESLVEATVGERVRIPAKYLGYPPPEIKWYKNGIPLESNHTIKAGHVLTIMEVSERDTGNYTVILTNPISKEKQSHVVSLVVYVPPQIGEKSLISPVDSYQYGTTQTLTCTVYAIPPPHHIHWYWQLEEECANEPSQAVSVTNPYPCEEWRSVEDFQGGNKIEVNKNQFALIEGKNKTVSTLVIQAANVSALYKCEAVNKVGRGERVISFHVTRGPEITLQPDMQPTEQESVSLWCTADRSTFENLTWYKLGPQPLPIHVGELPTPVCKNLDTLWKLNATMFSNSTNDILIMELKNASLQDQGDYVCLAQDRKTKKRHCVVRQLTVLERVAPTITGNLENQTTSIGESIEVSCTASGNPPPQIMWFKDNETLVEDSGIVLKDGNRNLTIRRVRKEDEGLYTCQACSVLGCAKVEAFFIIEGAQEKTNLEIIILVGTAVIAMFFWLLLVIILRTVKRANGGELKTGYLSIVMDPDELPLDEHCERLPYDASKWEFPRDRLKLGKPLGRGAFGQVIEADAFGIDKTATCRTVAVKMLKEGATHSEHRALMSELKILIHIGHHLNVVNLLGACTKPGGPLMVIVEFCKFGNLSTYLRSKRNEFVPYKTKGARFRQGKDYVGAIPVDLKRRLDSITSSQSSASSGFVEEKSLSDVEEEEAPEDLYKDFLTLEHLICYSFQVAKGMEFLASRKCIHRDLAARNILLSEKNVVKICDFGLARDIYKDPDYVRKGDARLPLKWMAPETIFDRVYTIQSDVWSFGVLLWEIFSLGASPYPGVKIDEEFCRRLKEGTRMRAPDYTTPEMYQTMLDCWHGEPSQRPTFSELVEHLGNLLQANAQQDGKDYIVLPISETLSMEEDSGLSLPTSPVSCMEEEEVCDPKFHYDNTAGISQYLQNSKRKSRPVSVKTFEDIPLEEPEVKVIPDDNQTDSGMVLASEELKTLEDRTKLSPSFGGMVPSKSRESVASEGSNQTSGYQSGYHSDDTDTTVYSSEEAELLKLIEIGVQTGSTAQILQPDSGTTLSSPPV

[11] = target: IGF-1 receptor of rat aorta (rat, UniProt P24062 31-1370)
Chain of IGF-1 receptor of rat aorta (P24062 31-1370): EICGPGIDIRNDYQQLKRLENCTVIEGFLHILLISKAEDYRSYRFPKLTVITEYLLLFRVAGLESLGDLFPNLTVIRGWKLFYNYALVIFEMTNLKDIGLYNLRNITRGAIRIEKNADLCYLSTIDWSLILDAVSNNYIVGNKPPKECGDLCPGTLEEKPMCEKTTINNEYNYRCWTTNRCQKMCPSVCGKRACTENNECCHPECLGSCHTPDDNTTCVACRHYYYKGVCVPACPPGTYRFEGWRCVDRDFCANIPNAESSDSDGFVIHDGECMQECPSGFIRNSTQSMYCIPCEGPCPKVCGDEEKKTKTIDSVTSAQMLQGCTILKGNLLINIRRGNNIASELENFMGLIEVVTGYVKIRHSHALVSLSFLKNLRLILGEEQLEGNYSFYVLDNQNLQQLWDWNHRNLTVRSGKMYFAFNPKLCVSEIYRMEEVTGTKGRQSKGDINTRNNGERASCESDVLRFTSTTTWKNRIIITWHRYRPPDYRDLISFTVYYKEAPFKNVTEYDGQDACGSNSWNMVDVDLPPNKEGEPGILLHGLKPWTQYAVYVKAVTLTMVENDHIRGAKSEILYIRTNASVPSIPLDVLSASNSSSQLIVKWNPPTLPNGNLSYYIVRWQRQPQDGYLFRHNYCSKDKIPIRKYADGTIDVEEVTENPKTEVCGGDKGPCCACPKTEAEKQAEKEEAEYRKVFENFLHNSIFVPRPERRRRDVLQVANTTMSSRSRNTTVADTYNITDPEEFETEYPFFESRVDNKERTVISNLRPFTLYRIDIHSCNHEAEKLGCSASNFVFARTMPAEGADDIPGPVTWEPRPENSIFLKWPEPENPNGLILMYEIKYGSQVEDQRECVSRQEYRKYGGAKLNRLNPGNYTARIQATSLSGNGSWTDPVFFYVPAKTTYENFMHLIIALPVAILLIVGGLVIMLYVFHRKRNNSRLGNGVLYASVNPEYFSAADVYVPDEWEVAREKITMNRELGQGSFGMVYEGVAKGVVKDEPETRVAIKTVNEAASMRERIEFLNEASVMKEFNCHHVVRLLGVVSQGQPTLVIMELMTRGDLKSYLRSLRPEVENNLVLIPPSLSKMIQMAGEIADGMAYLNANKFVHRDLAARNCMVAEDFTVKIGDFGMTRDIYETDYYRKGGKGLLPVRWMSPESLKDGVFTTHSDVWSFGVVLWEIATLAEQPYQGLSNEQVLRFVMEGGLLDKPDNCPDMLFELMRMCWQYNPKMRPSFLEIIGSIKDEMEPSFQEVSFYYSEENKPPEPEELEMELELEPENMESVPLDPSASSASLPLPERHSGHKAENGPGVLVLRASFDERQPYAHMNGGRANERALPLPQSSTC

Emax (%), IL-1β-induced PGE2 synthesis in endothelial cells (porcine) [8]: 100%
IC50, IL-1β-induced PGE2 synthesis in endothelial cells (porcine) [8]: 0.01 nM
B7: API-101.117 (peptide)
peptide: [dR][dY][dT][dP][dD][dL][dA]

EC50, IL-1 induced proliferation, 3H-thymidine, A549 carcinoma cells [1]: 1000 nM
B8: API-103 (peptide)
peptide: MKLPVHKLY

Emax (%), IL-1β-induced TF-1 proliferation [9]: < 10%
B9: API-101.133 (peptide)
peptide: [dK][dY][dT][dP][dE][dL]

Emax (%), IL-1β-induced TF-1 proliferation [9]: 50%
IC50, IL-1β-induced TF-1 proliferation [9]: 400 nM
B10: API-101.129 (peptide)
peptide: [dR][dY][dT][dP][dE][dV]

Emax (%), IL-1β-induced TF-1 proliferation [9]: 0%
B12: API-101.126 (peptide)
peptide: [dOrn][dY][dT][dP][dE][dL]

EC50, IL-1 induced proliferation, 3H-thymidine, A549 carcinoma cells [1]: 10000 nM
B14: API-106 (peptide)
peptide: VGSPKNAVPPV

Emax (%), IL-1β-induced TF-1 proliferation [9]: < 30%
B15: API-101.127 (peptide)
peptide: [dR][dF][dV][dP][dE][dL][dA]

EC50, VEGF (2 ng/ml)-induced proliferation, 3H-thymidine, PAEC transfected with Flk-1 (VEGFR-2 (Flk-1)): 9000 nM
B19: VEGFR peptide 2.2 (peptide)
peptide: [dE][dA][dT][dV]G[dE][dR][dV][dR][dL]
modifications: not fully specified (residue 5)

Emax (%), IL-1β-induced TF-1 proliferation [9]: 63%
B22: API-101.135 (peptide)
peptide: R[dY][dT][dP][dE][dL]

Emax (%), IL-1β-induced TF-1 proliferation [9]: 100%
IC50, IL-1β-induced TF-1 proliferation [9]: 3 nM
B24: API-101.128 (peptide)
peptide: [dR][dW][dT][dP][dE][dL]

Emax (%), IL-1β-induced proliferation in TF-1 cells (human) [5]: 75%
IC50, IL-1β-induced proliferation in TF-1 cells (human) [5]: 0.5 nM
Emax (%), IL-1β-induced PGE2 synthesis in endothelial cells (porcine) [8]: 45%
IC50, IL-1β-induced PGE2 synthesis in endothelial cells (porcine) [8]: 0.013 nM
B27: API-101.116 (peptide)
peptide: [dR][dW][dT][dP][dE][dL][dA]

EC50, VEGF (2 ng/ml)-induced proliferation, 3H-thymidine, PAEC transfected with Flk-1 (VEGFR-2 (Flk-1)): 9000 nM
B29: VEGFR peptide 2.1 (peptide)
peptide: [dA][dQ][dE][dK][dT][dN][dL][dE][dI][dI][dI][dL][dV]G
modifications: not fully specified (residue 14)

Continued, binder first:

B1: API-101.11 (peptide)
peptide: [dY][dT][dV][dE][dL][dA]
percent of IL-1β-induced WI-38 (human lung fibroblasts) proliferation abolished, 3H-thymidine [1]: 100%

B2: APG-206.9 (peptide)
peptide: TVLSNL
Emax, IGF-1-induced proliferation, NIH3T3-IGF-1R cells [2]: 90%
IC50, IGF-1-induced proliferation, NIH3T3-IGF-1R cells [2]: 20 nM

B3: APG-206.5 (peptide)
peptide: KERTVLS
Emax, IGF-1-induced proliferation, NIH3T3-IGF-1R cells [2]: 75%
IC50, IGF-1-induced proliferation, NIH3T3-IGF-1R cells [2]: 0.5 nM
Emax, proliferation, MCF-7 (breast cancer) cells [3]: 100%
IC50, proliferation, MCF-7 (breast cancer) cells [3]: 9 nM

B4: API-101.107 (peptide)
peptide: [dR][dY][dT][dP][dE][dL][dA]
IC50 (assay not given) [4]: 0.0012 nM
IC50, PGE2 measurement, human WI-38 cells [1]: 100 nM

B5: API-101.115 (peptide)
peptide: [dOrn][dY][dT][dP][dE][dL][dA]
Emax (%), IL-1β-induced proliferation in TF-1 cells (human) [5]: 100%
IC50, IL-1β-induced proliferation in TF-1 cells (human) [5]: ~0.001 nM

B6: APG-201 (peptide)
peptide: [dS][dL][dF][dV][dP][dR][dP][dE][dR][dK]
EC50, IGF-1 induced proliferation, 3H-thymidine, A549 carcinoma cells [6]: 1000 nM
EC50, IGF-1 (50 ng/ml)-induced proliferation, MCF-7 [7]: 35 nM
EC50, IGF-1 (50 ng/ml)-induced proliferation, MDA-MB-231 [7]: 0.1 nM
Emax, IGF-1 (50 ng/ml)-induced proliferation, MCF-7 [7]: 20%
Emax, IGF-1 (50 ng/ml)-induced proliferation, MDA-MB-231 [7]: 100%

B11: APG-202 (peptide)
peptide: [dE][dS][dD][dV][dL][dH][dF][dT][dS][dT]
EC50, IGF-1 induced proliferation, 3H-thymidine, A549 carcinoma cells [6]: 10 nM
EC50, IGF-1 (50 ng/ml)-induced proliferation, MCF-7 [7]: 300 nM
Emax, IGF-1 (50 ng/ml)-induced proliferation, MCF-7 [7]: 20%

B13: API-101.10 (peptide)
peptide: [dR][dY][dT][dV][dE][dL][dA]
modifications: also: 125I-labelled form used as tracer, site not given here
IC50, IL-1-induced PGE2 synthesis, WI-38 cells [1]: 0.2 nM
percent of IL-1β-induced WI-38 (human lung fibroblasts) proliferation abolished, 3H-thymidine [1]: 100%
IC50, IL-1-induced PGE2 synthesis, endothelial cells [10]: 1.2 nM
IC50, prevention of IL-1β (75 ng/ml)-induced vasodilation, piglet pial vessels [10]: 10.8 nM

B16: APG-206.8 (peptide)
peptide: RTVLSNL
Emax, proliferation, MCF-7 (breast cancer) cells [3]: 100%
IC50, proliferation, MCF-7 (breast cancer) cells [3]: 0.6 nM

B17: API-101.103 (peptide)
peptide: [dR][dY][dT][dV][dQ][dL][dA]
IC50, PGE2 measurement, human WI-38 cells [1]: 50 nM

B18: APG-206.7 (peptide)
peptide: ERTVLSNL
Emax, IGF-1-induced proliferation, NIH3T3-IGF-1R cells [2]: 100%
IC50, IGF-1-induced proliferation, NIH3T3-IGF-1R cells [2]: 20 nM
Emax, proliferation, MCF-7 (breast cancer) cells [3]: 90%
IC50, proliferation, MCF-7 (breast cancer) cells [3]: 0.01 nM

B20: API-101 (peptide)
peptide: [dA][dP][dR][dY][dT][dV][dE][dL][dA]
EC50, IL-1 induced proliferation, 3H-thymidine, A549 carcinoma cells [1]: 1000 nM
IC50, IL-1-induced PGE2 synthesis, WI-38 cells [1]: 790 nM
percent of IL-1β-induced WI-38 (human lung fibroblasts) proliferation abolished, 3H-thymidine [1]: 65%
IC50, IL-1-induced PGE2 synthesis, endothelial cells [10]: 220 nM
IC50, prevention of IL-1β (75 ng/ml)-induced vasodilation, piglet pial vessels [10]: 182 nM

B21: API-101.113 (peptide)
peptide: [dR][dY][dT][dP][dE][dL]
Emax (%), IL-1β-induced proliferation in TF-1 cells (human) [5]: 100%
Emax (%), IL-1β-induced PGE2 synthesis in endothelial cells (porcine) [8]: 80%
IC50, IL-1β-induced PGE2 synthesis in endothelial cells (porcine) [8]: 0.0074 nM
Emax (%), IL-1β-induced TF-1 proliferation [9]: 70%

B23: APG-206 (peptide)
peptide: KERTVISNLR
EC50, inhibition of ex vivo IGF-1-induced vasorelaxation of rat aorta [11]: 689 nM
Emax, inhibition of ex vivo IGF-1-induced vasorelaxation of rat aorta [11]: 75%
EC50, IGF-1 (50 ng/ml)-induced proliferation, HepG2 [7]: < 0.1 nM
EC50, IGF-1 (50 ng/ml)-induced proliferation, MCF-7 [7]: 2 nM
Emax, IGF-1 (50 ng/ml)-induced proliferation, MCF-7 [7]: 60%

B25: API-101.114 (peptide)
peptide: [dK][dY][dT][dP][dE][dL][dA]
Emax (%), IL-1β-induced PGE2 synthesis in endothelial cells (porcine) [8]: 50%
IC50, IL-1β-induced PGE2 synthesis in endothelial cells (porcine) [8]: 0.002 nM

B26: APG-205 (peptide)
peptide: ENFLHLLLA
EC50, inhibition of ex vivo IGF-1-induced vasorelaxation of rat aorta [11]: 70 nM
Emax, inhibition of ex vivo IGF-1-induced vasorelaxation of rat aorta [11]: 25%
EC50, IGF-1 (50 ng/ml)-induced proliferation, MCF-7 [7]: 0.1 nM
EC50, IGF-1 (50 ng/ml)-induced proliferation, MDA-MB-231 [7]: 100 nM
Emax, IGF-1 (50 ng/ml)-induced proliferation, MCF-7 [7]: 60%
Emax, IGF-1 (50 ng/ml)-induced proliferation, MDA-MB-231 [7]: 100%

B28: APG-203 (peptide)
peptide: RTNASVPSI
EC50, inhibition of ex vivo IGF-1-induced vasorelaxation of rat aorta [11]: 96 nM
Emax, inhibition of ex vivo IGF-1-induced vasorelaxation of rat aorta [11]: 50%
EC50, IGF-1 (50 ng/ml)-induced proliferation, HepG2 [7]: < 0.1 nM
EC50, IGF-1 (50 ng/ml)-induced proliferation, MCF-7 [7]: 8 nM
EC50, IGF-1 (50 ng/ml)-induced proliferation, MDA-MB-231 [7]: 0.1 nM
Emax, IGF-1 (50 ng/ml)-induced proliferation, MCF-7 [7]: 45%
Emax, IGF-1 (50 ng/ml)-induced proliferation, MDA-MB-231 [7]: 100%

From patent US20090048161A1 (VALORISATION HSJ SOCIETE EN COMMANDITE, published 2009)
